# Changes are numbered by the printed parent chain. Names may count otherwise.
# T1: 6×His-Thioredoxin-fused CP190 1–126 (BTB domain) (Drosophila melanogaster), Q24478
# T1 chain: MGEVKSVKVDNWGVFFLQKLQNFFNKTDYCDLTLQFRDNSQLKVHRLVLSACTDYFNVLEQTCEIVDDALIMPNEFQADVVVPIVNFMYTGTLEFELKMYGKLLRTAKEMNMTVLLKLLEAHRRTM
# B1: 6×His-Thioredoxin-fused CP190 1–126 (BTB domain), Q24478 1-126 (domain or fragment)
# chain: T1 chain
# B2: 6×His-Thioredoxin-fused CP190 1–126 L118A (domain or fragment, Drosophila melanogaster, UniProt Q24478 1-126, looked up)
# chain: T1 chain with L118A
# notes: CP190, Drosophila melanogaster, residues 1–126 (BTB domain); also called BTB^L118A; source: E. coli BL21, co-expressed with the GST fusion, in lysate (pull-down); bacterial expression (cross-linking)
# B3: 6×His-Thioredoxin-fused CP190 1–126 K117S (domain or fragment, Drosophila melanogaster, UniProt Q24478 1-126, looked up)
# chain: T1 chain with K117S
# notes: CP190, Drosophila melanogaster, residues 1–126 (BTB domain); source: E. coli BL21, co-expressed with the GST fusion, in lysate (pull-down); bacterial expression (cross-linking)
# B4: 6×His-Thioredoxin-fused CP190 1–126 V7A (domain or fragment, Drosophila melanogaster, UniProt Q24478 1-126, looked up)
# chain: T1 chain with V7A
# notes: CP190, Drosophila melanogaster, residues 1–126 (BTB domain); also called BTB^V7A; source: E. coli BL21, co-expressed with the GST fusion, in lysate (pull-down); bacterial expression (cross-linking)
# B5: 6×His-Thioredoxin-fused CP190 1–126 V114N (domain or fragment, Drosophila melanogaster, UniProt Q24478 1-126, looked up)
# chain: T1 chain with V114N
# notes: as for B3
# B6: 6×His-Thioredoxin-fused CP190 1–126 K19A (domain or fragment, Drosophila melanogaster, UniProt Q24478 1-126, looked up)
# chain: T1 chain with K19A
# notes: as for B3
# B7: 6×His-Thioredoxin-fused CP190 1–126 F15A (domain or fragment, Drosophila melanogaster, UniProt Q24478 1-126, looked up)
# chain: T1 chain with F15A
# notes: as for B3
# B8: 6×His-Thioredoxin-fused CP190 1–126 V114A (domain or fragment, Drosophila melanogaster, UniProt Q24478 1-126, looked up)
# chain: T1 chain with V114A
# notes: as for B3
# Target: T1, 6×His-Thioredoxin-fused CP190 1–126 …
# Experiment: cross-linking; glutaraldehyde, thioredoxin-fused BTB domains at 5 μM, 10 min at room temperature, 20 mM HEPES pH 7.7, 150 mM NaCl, 20 mM imidazole, 1 mM β-mercaptoethanol; SDS-PAGE, silver staining
# Settings: remark: other sources report otherwise
row,Binder,stoichiometry N
1,B1,2

# Target: the molecule itself
# Experiment: as above
# Settings: not given
row,Binder,stoichiometry N
1,B2,2
2,B3,2
3,B4,2
4,B5,2
5,B6,2
6,B7,2
7,B8,2
